Laboratory results from PMC4650537, “Loss of Caspase-3 sensitizes colon cancer cells to genotoxic stress via RIP1-dependent necrosis” (Cell Death & Disease, 2015).

Biological target: T1, pro-caspase-8 (human (endogenous in HCT116), UniProt Q14790 1-479)
T1 construct: caspase-8, human, endogenous in HCT116 colon cancer cells; Precipitated with a caspase-8 antibody (IP-Cas-8); also called Cas-8; source: endogenous, HCT116 (WT or caspase-3 knockout) whole cell lysate
Test: co-IP; IP with caspase-8 antibody (IP-Cas-8) from lysates of HCT116 WT or C3KO cells treated with DMSO or 5-FU (50 μg/ml) for 24 h; also with z-VAD (20 μM) and with or without glutathione (GSH, 10 μM); blots quantified (Supplementary Tables S2, S3)
Settings: partners not purified

T1 sequence (Q14790 whole entry): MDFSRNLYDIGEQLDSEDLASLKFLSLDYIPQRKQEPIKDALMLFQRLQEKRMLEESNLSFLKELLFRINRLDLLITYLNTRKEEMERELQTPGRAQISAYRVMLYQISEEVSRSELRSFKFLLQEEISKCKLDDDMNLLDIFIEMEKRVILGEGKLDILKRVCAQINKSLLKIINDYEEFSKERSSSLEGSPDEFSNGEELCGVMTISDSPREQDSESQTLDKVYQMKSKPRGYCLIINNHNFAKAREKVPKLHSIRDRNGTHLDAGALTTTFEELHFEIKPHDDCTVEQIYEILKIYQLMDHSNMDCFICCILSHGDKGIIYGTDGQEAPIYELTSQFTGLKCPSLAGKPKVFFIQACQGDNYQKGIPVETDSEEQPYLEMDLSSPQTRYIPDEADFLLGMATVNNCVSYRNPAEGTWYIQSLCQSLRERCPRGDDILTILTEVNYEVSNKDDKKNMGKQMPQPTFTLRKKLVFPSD

B1: receptor (TNFRSF)-interacting serine-threonine kinase 1 (natural protein, human (endogenous in HCT116), UniProt Q13546 1-671, looked up)
chain: MQPDMSLNVIKMKSSDFLESAELDSGGFGKVSLCFHRTQGLMIMKTVYKGPNCIEHNEALLEEAKMMNRLRHSRVVKLLGVIIEEGKYSLVMEYMEKGNLMHVLKAEMSTPLSVKGRIILEIIEGMCYLHGKGVIHKDLKPENILVDNDFHIKIADLGLASFKMWSKLNNEEHNELREVDGTAKKNGGTLYYMAPEHLNDVNAKPTEKSDVYSFAVVLWAIFANKEPYENAICEQQLIMCIKSGNRPDVDDITEYCPREIISLMKLCWEANPEARPTFPGIEEKFRPFYLSQLEESVEEDVKSLKKEYSNENAVVKRMQSLQLDCVAVPSSRSNSATEQPGSLHSSQGLGMGPVEESWFAPSLEHPQEENEPSLQSKLQDEANYHLYGSRMDRQTKQQPRQNVAYNREEERRRRVSHDPFAQQRPYENFQNTEGKGTAYSSAASHGNAVHQPSGLTSQPQVLYQNNGLYSSHGFGTRPLDPGTAGPRVWYRPIPSHMPSLHNIPVPETNYLGNTPTMPFSSLPPTDESIKYTIYNSTGIQIGAYNYMEIGGTSSSLLDSTNTNFKEEPAAKYQAIFDNTTSLTDKHLDPIRENLGKHWKNCARKLGFTQSQIDEIDHDYERDGLKEKVYQMLQKWVMREGIKGATVGKLAQALHQCSRIDLLSSLIYVSQN
notes: also called RIP1; RIP; source: endogenous, HCT116 (WT or caspase-3 knockout) whole cell lysate
- quantified 5-FU-induced RIP1 in the complex (with z-VAD; RIP1 term of the FADD to RIP1 ratio): 7.3

B2: Fas (TNFRSF6)-associated via death domain (natural protein, human (endogenous in HCT116), UniProt Q13158 1-208, looked up)
chain: MDPFLVLLHSVSSSLSSSELTELKFLCLGRVGKRKLERVQSGLDLFSMLLEQNDLEPGHTELLRELLASLRRHDLLRRVDDFEAGAAAGAAPGEEDLCAAFNVICDNVGKDWRRLARQLKVSDTKIDSIEDRYPRNLTERVRESLRIWKNTEKENATVAHLVGALRSCQMNLVADLVQEVQQARDLQNRSGAMSPMSWNSDASTSEAS
notes: FADD, human, endogenous in HCT116 colon cancer cells; also called FADD; source: endogenous, HCT116 (WT or caspase-3 knockout) whole cell lysate
- quantified 5-FU-induced FADD in the complex (C3KO cells, without z-VAD; FADD term of the FADD to RIP1 ratio): 1.82
- quantified 5-FU-induced FADD in the complex (with z-VAD; FADD term of the FADD to RIP1 ratio): 7.5
